Assay results reported in publication PMC10663505 (Nature Communications, 2023).

Target: the molecule itself
Assay: native gel or EMSA

B1: phosphorylated TBK1 (Native-PAGE of Supplementary Fig. S8a) (enzyme, UniProt Q9WUN2 1-729, looked up)
chain: MQSTSNHLWLLSDILGQGATANVFRGRHKKTGDLYAVKVFNNISFLRPVDVQMREFEVLKKLNHKNIVKLFAIEEETTTRHKVLIMEFCPCGSLYTVLEEPSNAYGLPESEFLIVLRDVVGGMNHLRENGIVHRDIKPGNIMRVIGEDGQSVYKLTDFGAARELEDDEQFVSLYGTEEYLHPDMYERAVLRKDHQKKYGATVDLWSVGVTFYHAATGSLPFRPFEGPRRNKEVMYKIITGKPSGAISGVQKAENGPIDWSGDMPLSCSLSQGLQALLTPVLANILEADQEKCWGFDQFFAETSDVLHRMVIHVFSLQHMTAHKIYIHSYNTAAVFHELVYKQTKIVSSNQELIYEGRRLVLELGRLAQHFPKTTEENPIFVTSREQLNTVGLRYEKISLPKIHPRYDLDGDASMAKAVTGVVCYACRTASTLLLYQELMRKGVRWLVELVKDDYNETVHKKTEVVITLDFCIRNIEKTVKVYEKLMKVNLEAAELGEISDIHTKLLRLSSSQGTIESSLQDISSRLSPGGLLADTWAHQEGTHPRDRNVEKLQVLLNCITEIYYQFKKDKAERRLAYNEEQIHKFDKQKLYYHATKAMSHFSEECVRKYEAFKDKSEEWMRKMLHLRKQLLSLTNQCFDIEEEVSKYQDYTNELQETLPQKMLAASGGVKHAMAPIYPSSNTLVEMTLGMKKLKEEMEGVVKELAENNHILERFGSLTMDGGLRNVDCL
modifications: phosphorylated (detected with the anti-phosphorylated TBK1 antibody)
notes: probably endogenous mouse TBK1
stoichiometry N: 2
